Assays:
APP-GFP = experiment: Distribution of APP-GFP in MDA-MB-231 cells; assay type: cell-based, human; settings: for APP redistribution (figure title): APP-GFP F615P/D664A, EEA1, TGN46 staining; for change in distribution of APP: HA-epitope-tagged constructs, 24 h after transfection, EEA1/TGN46 immunofluorescence
Description: H4 human neuroglioma or MDA-MB-231 human mammary gland epithelial cells obtained from the American Type Culture Collection (Manassas, VA) were maintained in DMEM (H4) or DMEM/F12 (MDA-MB-231) supplemented with 10% (v/v) fetal bovine serum (FBS), 100 U/ml penicillin and 100 µg/ml streptomycin (Life Technologies). Transfections were carried out using Lipofectamine 2000 (Life Technologies) for 1 h at 37°C in the absence of FBS, and cells were analyzed 16, 24 or up to 36-h after transfection, for which we observed no notorious signs of loss in cell viability. SDS-PAGE, immunoblotting, and immunoprecipitation were performed as described. H4 cells after 16 h of transfection were washed twice with cold phosphate buffered saline supplemented with 0.1 mM CaCl2 and 1 mM MgCl2 (PBS-Ca/Mg), and incubated at 4°C for 1 h in lysis buffer (50 mM Tris-HCl pH 7.4, 150 mM NaCl, 1 mM EDTA, 1% (v/v) Triton X-100, and a cocktail of protease inhibitors). Soluble extracts were subjected to overnight immunoprecipitation at 4°C either with rabbit anti-HA-epitope antibody (kindly provided by R. Hegde, MRC Laboratory of Molecular Biology, Cambridge, UK) or with mouse antibody to the ε subunit of AP-4 (BD Biosciences) immobilized onto protein A- or a 1∶1 mix of protein A- and protein-G Sepharose beads (GE Healthcare), respectively. Soluble extracts and immunoprecipitates were processed by SDS-PAGE and blotted with horseradish peroxidase-conjugated mouse anti-HA antibody (Macs Miltenyi Biotec) or with mouse antibody to the ε subunit of AP-4.
Indirect immunofluorescence staining of fixed, permeabilized cells was performed as previously described, using sheep polyclonal antibody anti-TGN46 (Serotec), and mouse monoclonal antibody anti-EEA1 (BD Biosciences) or rabbit polyclonal antibody anti-EEA1 (Santa Cruz Biotechnology), followed by the secondary antibodies Alexa-647–conjugated donkey anti-mouse IgG, Alexa-594–conjugated donkey anti-rabbit IgG, or Alexa-594– or -647–conjugated donkey anti-sheep IgG (Life Technologies). Images were acquired either with an Olympus FluoView FV1000 scanning unit fitted on an inverted Olympus IX81 microscope and equipped with a PlanApo 60x oil immersion objective (NA 1.40; Olympus, Melville, NY), using similar settings as described previously, or with an AxioObserver.D1 microscope equipped with a PlanApo 63x oil immersion objective (NA 1.4), and an AxioCam MRm digital camera (Carl Zeiss). Quantitative analysis of colocalization was performed as we previously described, with minor modifications. Briefly, 12-bit images were acquired under identical settings avoiding signal saturation, and corrected for noise, cross-talk, and background signals on each set of images. The signals of TGN46 or EEA1 in each set of images were used in Image J (version 1.44o; Wayne Rasband, NIH, http://imagej.nih.gov) to define masks regarded as Golgi/TGN or early endosomes localization, respectively. The percentage of localization in each compartment was calculated for each cell (n = 10–15) subtracting either the Golgi/TGN or the early endosomes mask from the total integrated pixel intensity of APP-GFP, and the remainder of the signal was considered as in the ‘rest of the cell’.
We next examined the functional role of both the μ2- and the μ4-binding site of μ4 on the intracellular trafficking of APP. We have shown that the YKFFE-μ4 interaction is functional in vivo because its disruption by depletion of μ4 by RNAi produces a shift in the distribution of APP from endosomes to the TGN [18]. To evaluate now the function of each binding site for tyrosine-based signals, we tested a dominant-negative effect by overexpressing untagged or HA-epitope-tagged full-length wild-type μ4 or the variants untagged or HA-epitope-tagged μ4-D190A, μ4-D190S, μ4-F255A or μ4-R283D in H4 neuroglioma cells, as well as in MDA-MB-231 mammary gland epithelial cells, and examined by immunofluorescence the distribution of APP-GFP. […]

cytosolic tail of APP = settings: mutations at μ4-binding site; previously identified; ref [18]; cited from earlier work
Description: This tyrosine-based signal is related to the YXXØ motif, which is the signal contained in the cytosolic tail of transmembrane proteins that binds to a different site on the μ2 subunit of AP-2 [28], or on the μ3A subunit of AP-3 [30]. In this study, we wanted to determine whether this putative second binding site on μ4, referred here as the μ2-binding site (Figure 1, A and B), played any role in the binding to the YKFFE signal of APP ...

Molecule | APP redistribution (figure title) (APP-GFP; 24 h) | change in distribution of APP (APP-GFP) | further results
μ4-D190S: D190S mutant of μ4 (C-terminal domain in vitro; full-length, HA-tagged or untagged, in cells) (protein, left off: GST, N-terminal, cleaved) QQSKVAPSSAASRPVLSSRSDQSQKNEVFLSVVERLSVLIASNGSLLKVDVQGEIRLKSFLPSGSEMRIGLTEEFCVGKSELRGYGPGIRVDEVSFHSSVNLDEFESHRILRLQPPQGELTVMRYQLSDDLPSPLPFRLFPSVQWDRGSGRLQVYLKLRCDLLSKSQALNVRLHLPLPRGVVSLSQELSSPEQKAELAEGALRWDLPRVQGGSQLSGLFQMDVPGPPGPPSHGLSTSASPLGLGPASLSFELPRHTCSGLQVRFLRLAFRPCGNANPHKWVRHLSHSDAYVIRI | – | – | effect on localization of APP-GFP in endosomes (APP-GFP; either HA-epitope-tagged or untagged, 24 h): little or no effect
μ4-R283D: μ4 with the single mutation R283D at the μ4-binding site (C-terminal domain; untagged full-length in b45) (protein, left off: GST, N-terminal, cleaved) QQSKVAPSSAASRPVLSSRSDQSQKNEVFLDVVERLSVLIASNGSLLKVDVQGEIRLKSFLPSGSEMRIGLTEEFCVGKSELRGYGPGIRVDEVSFHSSVNLDEFESHRILRLQPPQGELTVMDYQLSDDLPSPLPFRLFPSVQWDRGSGRLQVYLKLRCDLLSKSQALNVRLHLPLPRGVVSLSQELSSPEQKAELAEGALRWDLPRVQGGSQLSGLFQMDVPGPPGPPSHGLSTSASPLGLGPASLSFELPRHTCSGLQVRFLRLAFRPCGNANPHKWVRHLSHSDAYVIRI | APP redistributes from endosomes to the TGN | – | –
H256A: μ4 mutant, μ4-binding site, reported previously (protein, UniProt O00189 1-453, looked up, variant H256A) AP-4 complex subunit mu-1: MISQFFILSSKGDPLIYKDFRGDSGGRDVAELFYRKLTGLPGDESPVVMHHHGRHFIHIRHSGLYLVVTTSENVSPFSLLELLSRLATLLGDYCGSLGEGTISRNVALVYELLDEVLDYGYVQTTSTEMLRNFIQTEAVVSKPFSLFDLSSVGLFGAETQQSKVAPSSAASRPVLSSRSDQSQKNEVFLDVVERLSVLIASNGSLLKVDVQGEIRLKSFLPSGSEMRIGLTEEFCVGKSELRGYGPGIRVDEVSFASSVNLDEFESHRILRLQPPQGELTVMRYQLSDDLPSPLPFRLFPSVQWDRGSGRLQVYLKLRCDLLSKSQALNVRLHLPLPRGVVSLSQELSSPEQKAELAEGALRWDLPRVQGGSQLSGLFQMDVPGPPGPPSHGLSTSASPLGLGPASLSFELPRHTCSGLQVRFLRLAFRPCGNANPHKWVRHLSHSDAYVIRI | – | – | effect of mutation on binding to the APP YKFFE signal (cytosolic tail of APP): null effect
µ4-D190A-HA: HA-epitope-tagged full-length μ4-D190A, overexpressed (protein, left off: HA, end not stated, kept) MISQFFILSSKGDPLIYKDFRGDSGGRDVAELFYRKLTGLPGDESPVVMHHHGRHFIHIRHSGLYLVVTTSENVSPFSLLELLSRLATLLGDYCGSLGEGTISRNVALVYELLDEVLDYGYVQTTSTEMLRNFIQTEAVVSKPFSLFDLSSVGLFGAETQQSKVAPSSAASRPVLSSRSDQSQKNEVFLAVVERLSVLIASNGSLLKVDVQGEIRLKSFLPSGSEMRIGLTEEFCVGKSELRGYGPGIRVDEVSFHSSVNLDEFESHRILRLQPPQGELTVMRYQLSDDLPSPLPFRLFPSVQWDRGSGRLQVYLKLRCDLLSKSQALNVRLHLPLPRGVVSLSQELSSPEQKAELAEGALRWDLPRVQGGSQLSGLFQMDVPGPPGPPSHGLSTSASPLGLGPASLSFELPRHTCSGLQVRFLRLAFRPCGNANPHKWVRHLSHSDAYVIRI | – | minor redistribution of APP to the TGN | –
S257A: μ4 mutant, μ4-binding site, reported previously (protein, UniProt O00189 1-453, looked up, variant S257A) AP-4 complex subunit mu-1: MISQFFILSSKGDPLIYKDFRGDSGGRDVAELFYRKLTGLPGDESPVVMHHHGRHFIHIRHSGLYLVVTTSENVSPFSLLELLSRLATLLGDYCGSLGEGTISRNVALVYELLDEVLDYGYVQTTSTEMLRNFIQTEAVVSKPFSLFDLSSVGLFGAETQQSKVAPSSAASRPVLSSRSDQSQKNEVFLDVVERLSVLIASNGSLLKVDVQGEIRLKSFLPSGSEMRIGLTEEFCVGKSELRGYGPGIRVDEVSFHASVNLDEFESHRILRLQPPQGELTVMRYQLSDDLPSPLPFRLFPSVQWDRGSGRLQVYLKLRCDLLSKSQALNVRLHLPLPRGVVSLSQELSSPEQKAELAEGALRWDLPRVQGGSQLSGLFQMDVPGPPGPPSHGLSTSASPLGLGPASLSFELPRHTCSGLQVRFLRLAFRPCGNANPHKWVRHLSHSDAYVIRI | – | – | effect of mutation on binding to the APP YKFFE signal (cytosolic tail of APP): null effect
µ4-F255A-HA: HA-epitope-tagged full-length μ4-F255A, overexpressed (protein, left off: HA, end not stated, kept) MISQFFILSSKGDPLIYKDFRGDSGGRDVAELFYRKLTGLPGDESPVVMHHHGRHFIHIRHSGLYLVVTTSENVSPFSLLELLSRLATLLGDYCGSLGEGTISRNVALVYELLDEVLDYGYVQTTSTEMLRNFIQTEAVVSKPFSLFDLSSVGLFGAETQQSKVAPSSAASRPVLSSRSDQSQKNEVFLDVVERLSVLIASNGSLLKVDVQGEIRLKSFLPSGSEMRIGLTEEFCVGKSELRGYGPGIRVDEVSAHSSVNLDEFESHRILRLQPPQGELTVMRYQLSDDLPSPLPFRLFPSVQWDRGSGRLQVYLKLRCDLLSKSQALNVRLHLPLPRGVVSLSQELSSPEQKAELAEGALRWDLPRVQGGSQLSGLFQMDVPGPPGPPSHGLSTSASPLGLGPASLSFELPRHTCSGLQVRFLRLAFRPCGNANPHKWVRHLSHSDAYVIRI | APP redistributes from endosomes to the TGN | strong redistribution of APP from endosomes to the TGN | –
µ4-R283D-HA: HA-epitope-tagged full-length μ4-R283D, overexpressed (protein, left off: HA, end not stated, kept) MISQFFILSSKGDPLIYKDFRGDSGGRDVAELFYRKLTGLPGDESPVVMHHHGRHFIHIRHSGLYLVVTTSENVSPFSLLELLSRLATLLGDYCGSLGEGTISRNVALVYELLDEVLDYGYVQTTSTEMLRNFIQTEAVVSKPFSLFDLSSVGLFGAETQQSKVAPSSAASRPVLSSRSDQSQKNEVFLDVVERLSVLIASNGSLLKVDVQGEIRLKSFLPSGSEMRIGLTEEFCVGKSELRGYGPGIRVDEVSFHSSVNLDEFESHRILRLQPPQGELTVMDYQLSDDLPSPLPFRLFPSVQWDRGSGRLQVYLKLRCDLLSKSQALNVRLHLPLPRGVVSLSQELSSPEQKAELAEGALRWDLPRVQGGSQLSGLFQMDVPGPPGPPSHGLSTSASPLGLGPASLSFELPRHTCSGLQVRFLRLAFRPCGNANPHKWVRHLSHSDAYVIRI | APP redistributes from endosomes to the TGN | strong redistribution of APP from endosomes to the TGN | –
